Results: paper PMC2542475 (The Journal of Cell Biology, 2008)

Biological target: T1, recombinant full-length Vps41 (S. cerevisiae, UniProt P38959 1-992)
T1 sequence: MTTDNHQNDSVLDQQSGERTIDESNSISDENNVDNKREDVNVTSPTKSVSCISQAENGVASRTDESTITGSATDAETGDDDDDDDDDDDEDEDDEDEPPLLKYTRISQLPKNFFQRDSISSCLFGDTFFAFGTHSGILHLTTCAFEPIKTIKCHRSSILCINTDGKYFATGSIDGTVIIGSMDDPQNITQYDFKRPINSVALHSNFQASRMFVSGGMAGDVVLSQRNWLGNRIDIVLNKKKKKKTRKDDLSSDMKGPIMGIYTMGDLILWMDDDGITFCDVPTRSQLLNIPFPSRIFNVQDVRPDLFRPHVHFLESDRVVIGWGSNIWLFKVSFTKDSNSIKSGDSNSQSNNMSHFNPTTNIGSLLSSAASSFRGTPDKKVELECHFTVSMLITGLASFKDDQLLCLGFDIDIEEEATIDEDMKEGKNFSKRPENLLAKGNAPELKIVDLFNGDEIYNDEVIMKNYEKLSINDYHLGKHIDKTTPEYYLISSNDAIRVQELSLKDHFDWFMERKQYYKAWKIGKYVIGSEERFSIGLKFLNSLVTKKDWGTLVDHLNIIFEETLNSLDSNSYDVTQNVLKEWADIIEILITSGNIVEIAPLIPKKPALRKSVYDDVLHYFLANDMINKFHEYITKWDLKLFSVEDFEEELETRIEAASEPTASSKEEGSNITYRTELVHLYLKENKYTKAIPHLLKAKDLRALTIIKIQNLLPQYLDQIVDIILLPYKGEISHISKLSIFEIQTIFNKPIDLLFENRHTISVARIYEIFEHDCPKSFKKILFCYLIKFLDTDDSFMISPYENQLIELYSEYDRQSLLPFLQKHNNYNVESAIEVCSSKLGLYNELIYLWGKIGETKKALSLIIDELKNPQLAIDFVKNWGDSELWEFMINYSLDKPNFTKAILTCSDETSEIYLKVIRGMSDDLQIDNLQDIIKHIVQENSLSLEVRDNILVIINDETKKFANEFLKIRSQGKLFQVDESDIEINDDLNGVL
Experiment: pull-down

binding result: binds
B1: GST-Ypt7 (natural protein)
chain: MSSRKKNILKVIILGDSGVGKTSLMHRYVNDKYSQQYKATIGADFLTKEVTVDGDKVATMQVWDTAGQERFQSLGVAFYRGADCCVLVYDVTNASSFENIKSWRDEFLVHANVNSPETFPFVILGNKIDAEESKKIVSEKSAQELAKSLGDIPLFLTSAKNAINVDTAFEEIARSALQQNQADTEAFEDDYNDAINIRLDGENNSCSC
